US20250197503A1 (published 2025)

Molecular target: human PD-L1 on stably transfected cell line HEK293T/hPD-L1 (human, UniProt Q9NZQ7 19-290)
Test: FACS blocking of human PD-1/PD-L1 binding

human PD-L1 on stably transfected cell line HEK293T/hPD-L1, sequence (Q9NZQ7 19-290): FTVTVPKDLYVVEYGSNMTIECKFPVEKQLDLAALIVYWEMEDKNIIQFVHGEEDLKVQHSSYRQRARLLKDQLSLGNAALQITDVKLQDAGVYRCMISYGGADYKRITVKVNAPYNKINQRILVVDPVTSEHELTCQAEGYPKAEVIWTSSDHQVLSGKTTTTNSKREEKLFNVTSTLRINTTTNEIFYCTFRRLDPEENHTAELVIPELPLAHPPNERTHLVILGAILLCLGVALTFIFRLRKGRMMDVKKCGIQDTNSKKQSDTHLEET

Binder | IC50 [µg/mL]
h_Nb2 (expressed from pFUSE-hIgG1-Fc) (Fc fusion) DVQLQESGGGLVQPGGSLRLSCAASGFTFGDRWMYWLRQAPGKGLEWVSSINPAGRSTYYADSVKGRFTISRDNAKNTLYLQMNSLKSEDTAVYYCTKDPGGYQKGQGTQVTVSS | 0.106
h_Nb1 (expressed from pFUSE-hIgG1-Fc) (Fc fusion) DVQLQESGGGLVQPGGSLRLSCAASGFTFSSYAMSWVRQAPGKGLEWVSDINSGGDNTDYADSVKGRFTISRDNAKNTLYLQMNSLKPEDTAVYYCARGPKLCFSSWGQGTQVTVSS | 0.751
